Source: the supplement of paper PMC9170038

System: MS2 coat protein
Test: apparent KD of MS2 coat protein; designed switch direction (-1 OFF switch, 1 ON switch): -1; higher = weaker reporter binding
How it was run: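 Stalled E. coli RNA polymerase transcribed designed RNA switches on Illumina chips, which were then titrated with SNAP-549-labelled MS2 coat protein, doubling from 0.7 or 1.5 nM to 3 µM. Steps lasted from 0.8–1.5 h at the lowest concentration to 10–20 min at the highest. The apparent KD is each design's median over clusters of curve-fitted normalised fluorescence.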

[1] = input ligand: microRNA oligo, concentration not stated
[2] = Eterna round: R95, input ligand: microRNA oligo, concentration not stated
[3] = Eterna round: R95, input ligand: FMN 200 uM
[4] = Eterna round: R95, input ligand: none

AAUUAUUUUUGAGGAUAUGGUGGUGAAACACCACCAGAAGGCGAAAUAAACAUGAGGAUCACCCAUGUGAGCCUGAUGCUUAUG [Ex NG1 #48] (Eterna round: R96, puzzle: Exclusion NG 1)
apparent KD of MS2 coat protein [1]: 19.9 nM

AAUUAUUUUUGAGGAUAUGGUGGUGAAACACCACCAGAAGGCGAGAUAAACAUGAGGAUCACCCAUGUGAGCCUGAUGCUUAUG [Ex NG1 #49] (Eterna round: R96, puzzle: Exclusion NG 1)
apparent KD of MS2 coat protein (input ligand: FMN 200 uM): 29.2 nM | apparent KD of MS2 coat protein [1]: 12.6 nM | apparent KD of MS2 coat protein (input ligand: none): 17.2 nM

AAUUCACAUGAGGAUCACCCAUGUCAGGAUAUGGUUUCACGUUUUUCUUUGCUUGAGGCCAGAAGGGACAGCUA (puzzle: Exclusion 1)
apparent KD of MS2 coat protein [2]: 54.2 nM

ACAACAAGCUUUUUGAACGUAGAACAUGCAGCUCUAGAAACAUGAGGAUCACCCAUGUAAGCCAGUUAGAUAGGUGA [JR_SV3TOV2_Sub067] (puzzle: Sensor v3, turn-off variant 2)
apparent KD of MS2 coat protein [3]: 76.1 nM | apparent KD of MS2 coat protein [2]: 69.1 nM | apparent KD of MS2 coat protein [4]: 89.5 nM

ACAACAAGCUUUUUGUUCGUAGAACAUGAUGCUCUAGUCACAUGAGGAUCACCCAUGUCAGCCAGUUAGAUAGGUGA [JR_SV3TOV2_Sub064] (Eterna round: R96, puzzle: Sensor v3, turn-off variant 2)
apparent KD of MS2 coat protein (input ligand: FMN 200 uM): 96.7 nM | apparent KD of MS2 coat protein [1]: 133 nM | apparent KD of MS2 coat protein (input ligand: none): 86 nM

ACAACAAGCUUUUUGUUCGUAGAACAUGAUGCUCUAGUCACAUGAGGAUCACCCAUGUCAGCCAGUUAGAUAGGUGA [JR_SV3TOV2_Sub064] (puzzle: Sensor v3, turn-off variant 2)
apparent KD of MS2 coat protein [3]: 75.2 nM | apparent KD of MS2 coat protein [2]: 133 nM | apparent KD of MS2 coat protein [4]: 81.1 nM

ACAAGCGAAAGGCUCGUCUUAUUUUUGUAGAGGUUCUAAACAUGAGGAUCACCCAUGUAGUGGCGAUGGUGGAGGUA [JR_SV3TOV2_Sub069] (puzzle: Sensor v3, turn-off variant 2)
apparent KD of MS2 coat protein [3]: 41.8 nM | apparent KD of MS2 coat protein [2]: 44.2 nM | apparent KD of MS2 coat protein [4]: 42.4 nM

ACAAGCUUGUAAUGACUUAACAUGAGGAUCACCCAUGUAAAUGGAAGAACCAACUUGAUAUGAUUUACUCGUCUUAU [JR_STOV1_Sub010] (Eterna round: R97, puzzle: Sensor, turn-off variant 1)
apparent KD of MS2 coat protein (input ligand: FMN 200 uM): 1140 nM | apparent KD of MS2 coat protein (input ligand: none): 1030 nM

ACAAGCUUUUUCAUAUCUUACAUGAGGAUCACCCAUGUUUUUGCAAUUAUGUUUGGGCUCUUUUGAGCUCGUCUUAU [JR_STOV1_Sub048] (Eterna round: R97, puzzle: Sensor, turn-off variant 1)
apparent KD of MS2 coat protein (input ligand: FMN 200 uM): 13.5 nM | apparent KD of MS2 coat protein (input ligand: none): 14.4 nM

ACAAGCUUUUUGCAUGUUAGUUUUGUUGCUUCGUAUGUAACAUGAGGAUCACCCAUGUAAGACUGAUGUCGUCGUUU [JR_SV3TOV2_Sub088] (puzzle: Sensor v3, turn-off variant 2)
apparent KD of MS2 coat protein [3]: 44.9 nM | apparent KD of MS2 coat protein [2]: 47.8 nM | apparent KD of MS2 coat protein [4]: 61.6 nM

ACAAGCUUUUUGCUCGUCUACAUGAGGAUCACCCAUGUAGUGAGAUAGUGGUGAAGAUAGAUUGAGCGUAGUAGGUA [JR_SV3TOV1_Sub071] (puzzle: Sensor v3, turn-off variant 1)
apparent KD of MS2 coat protein [3]: 26.9 nM | apparent KD of MS2 coat protein [2]: 51.7 nM | apparent KD of MS2 coat protein [4]: 21.5 nM

ACAAGCUUUUUGUUCGUCUUAUAAUAAUAAAUAAAUAUAACAUGAGGAUCACCCAUGUUGAGAAGACAGCCUCAUGU [Sesor Array 23 - Jieux - Sensor v3, turn-off variant 2] (puzzle: Sensor v3, turn-off variant 2)
apparent KD of MS2 coat protein [3]: 121 nM | apparent KD of MS2 coat protein [2]: 42.7 nM | apparent KD of MS2 coat protein [4]: 104 nM

ACACAGCGAGGAUAUACAUGAGGAUCACCCAUGUGGCGGCCGUUACGGUAGCACUAGUGUAGAAGGCGCAUUGG [EX3 #35] (Eterna round: R97, puzzle: Exclusion 3)
apparent KD of MS2 coat protein (input ligand: FMN 200 uM): 155 nM | apparent KD of MS2 coat protein (input ligand: none): 192 nM

ACACGGAUAGGAUAUACUUGAGGAUCACCCAAGUGGAACCGCUUGUCCCGAUCCUAGAGUAGAAGGAUCAAAUA [Anusxebiat] (Eterna round: R97, puzzle: Exclusion 3)
apparent KD of MS2 coat protein (input ligand: FMN 200 uM): 149 nM | apparent KD of MS2 coat protein (input ligand: none): 44.3 nM

ACAGCUAUAGGAUAUACAGCGAGGAAACUUAGUGGGAUCGGACAUGAGGAUCACCCAUGUAGAAGGAUAGACGG [Eternabot (L2) Solution 85] (Eterna round: R97, puzzle: Exclusion 2)
apparent KD of MS2 coat protein (input ligand: FMN 200 uM): 149 nM | apparent KD of MS2 coat protein (input ligand: none): 97.6 nM

ACAGUCACAUGGGUACCAGACAUGAGGAUCACCCAUGUGACAGGUACUUUGUGGCGUCUUGUAUAAUUAAUAAUCAA [Sensor v2, turn off variant (Maaon - vinnie MOD7)] (Eterna round: R96, puzzle: Sensor v2, turn-off variant)
apparent KD of MS2 coat protein (input ligand: FMN 200 uM): 9.97 nM | apparent KD of MS2 coat protein [1]: 14.3 nM | apparent KD of MS2 coat protein (input ligand: none): 13.4 nM

ACAGUUUUGCAAGGAUAUCGUUUUAGUUUAUUACGAGAAGGUGCUUAAGUAAUUUCUUUGGGUUGACAUGAGGAUCACCCAUGU [JR_ExcNG1_Sub058] (Eterna round: R96, puzzle: Exclusion NG 1)
apparent KD of MS2 coat protein (input ligand: FMN 200 uM): 160 nM | apparent KD of MS2 coat protein [1]: 128 nM | apparent KD of MS2 coat protein (input ligand: none): 139 nM

ACAUGAAGAUAGGAUAUCCGCGAAAAUGGUCUAGGAGAAGGGUCUACAUGAGGAUCACCCAUGUAGCAGUGGAU [Eternabot (L1) Solution 79] (Eterna round: R97, puzzle: Exclusion 6)
apparent KD of MS2 coat protein (input ligand: FMN 200 uM): 14.7 nM | apparent KD of MS2 coat protein (input ligand: none): 16.7 nM

ACAUGAGGAUCACCCAUGUACACGUAAUGGCUCAUGUAGAGUGAGGAUAUGUGAGACGAACGAGCACAGAAGGCACAAGACAGG [Deportation 10 - Jieux - Exclusion NG 3] (Eterna round: R96, puzzle: Exclusion NG 3)
apparent KD of MS2 coat protein (input ligand: FMN 200 uM): 38.3 nM | apparent KD of MS2 coat protein [1]: 23.8 nM | apparent KD of MS2 coat protein (input ligand: none): 34.8 nM

ACAUGAGGAUCACCCAUGUCAACGAAAAGGCUCAUGUAGAGUGAGGAUAUGUGAGACGAACGAGAACAGAAGGCACAAGACAGG [Deportation 3 - Jieux - Exclusion NG 3] (Eterna round: R96, puzzle: Exclusion NG 3)
apparent KD of MS2 coat protein (input ligand: FMN 200 uM): 31.8 nM | apparent KD of MS2 coat protein [1]: 16.6 nM | apparent KD of MS2 coat protein (input ligand: none): 38.4 nM

ACAUGAGGAUCACCCAUGUCAGGCGGGUCCACUCCGGCUGUUGAGGAUAUAGUCCGGUAUCCGCGCUAGAAGGUGAGGGCCGGC [Aenatbe mod 24] (Eterna round: R96, puzzle: Exclusion NG 3)
apparent KD of MS2 coat protein (input ligand: FMN 200 uM): 20.6 nM | apparent KD of MS2 coat protein [1]: 15.4 nM | apparent KD of MS2 coat protein (input ligand: none): 19.9 nM

ACAUGAGGAUCACCCAUGUCCGGCUGGUCCGUCUCGGCUGUCGAGGAUAUGGCUCGGUGUCCGCGCUAGAAGGCGGGAGCCGGA [Aenatbe mod 76] (Eterna round: R96, puzzle: Exclusion NG 3)
apparent KD of MS2 coat protein (input ligand: FMN 200 uM): 31.6 nM | apparent KD of MS2 coat protein [1]: 27.2 nM | apparent KD of MS2 coat protein (input ligand: none): 45.4 nM

ACAUGAGGAUCACCCAUGUCCGUCUGGUCUGUCUCGGCUGUCGAGGAUAUAGCUCGGUAUCCGCGCUAGAAGGCGGGAGUCGGA [Aenatbe mod 94] (Eterna round: R96, puzzle: Exclusion NG 3)
apparent KD of MS2 coat protein (input ligand: FMN 200 uM): 24.3 nM | apparent KD of MS2 coat protein [1]: 24.2 nM | apparent KD of MS2 coat protein (input ligand: none): 32.3 nM

ACAUGAGGAUCACCCAUGUCUGGCUGGUCUGCUCCGGCUGUUGAGGAUAUAGUCCGGUGUUCGCGCUAGAAGGUGAGGGCUGGA [Aenatbe mod 41] (Eterna round: R96, puzzle: Exclusion NG 3)
apparent KD of MS2 coat protein (input ligand: FMN 200 uM): 107 nM | apparent KD of MS2 coat protein [1]: 49.5 nM | apparent KD of MS2 coat protein (input ligand: none): 77.3 nM

ACAUGAGGAUCACCCAUGUCUGGCUGGUCUGCUCCGGUUGUUGAGGAUAUAGUUCGGUGUUCGCGCUAGAAGGUGAGGGCUGGA [Aenatbe mod 39] (Eterna round: R96, puzzle: Exclusion NG 3)
apparent KD of MS2 coat protein (input ligand: FMN 200 uM): 260 nM | apparent KD of MS2 coat protein [1]: 139 nM | apparent KD of MS2 coat protein (input ligand: none): 176 nM

ACAUGAGGAUCACCCAUGUGAAAACAAUGGCUGACACAGAGAUAGGAUAUAUGUGCAUAUCAAACAUAGAAGGGUCAUAACUGG [Deportation 85 - Jieux - Exclusion NG 3] (Eterna round: R96, puzzle: Exclusion NG 3)
apparent KD of MS2 coat protein [1]: 40.6 nM

ACAUGAGGAUCACCCAUGUUAUGUUGGGUACUAAAUUAUUCGUAGGAUAUCGUAGCUAGUUUGUGCGAGAAGGACGCAGUUUUU [JR_ExcNG3_Sub060] (Eterna round: R96, puzzle: Exclusion NG 3)
apparent KD of MS2 coat protein [1]: 202 nM

ACAUGAGGAUCACCCAUGUUAUGUUGGGUACUAAAUUAUUCGUAGGAUAUCGUAGCUAGUUUGUGCGAGAAGGACGCAUUUUUU [JR_ExcNG3_Sub059] (Eterna round: R96, puzzle: Exclusion NG 3)
apparent KD of MS2 coat protein (input ligand: FMN 200 uM): 205 nM | apparent KD of MS2 coat protein [1]: 229 nM | apparent KD of MS2 coat protein (input ligand: none): 273 nM
